For 1 molecule, Kd results are on record in PMC9860306 (2022).

Among the targets are C11; E4; E2.
Holding throughout (assay): SPR
Background: SPR reads the build-up and loss of mass on a sensor chip optically.

B1: rituximab, galactosylated afucosylated (G2) glycoform (antibody)
chain 1: QVQLQQPGAELVKPGASVKMSCKASGYTFTSYNMHWVKQTPGRGLEWIGAIYPGNGDTSYNQKFKGKATLTADKSSSTAYMQLSSLTSEDSAVYYCARSTYYGGDWYFNVWGAGTTVTVSA
chain 2: QIVLSQSPAILSASPGEKVTMTCRASSSVSYIHWFQQKPGSSPKPWIYATSNLASGVPVRFSGSGSGTSYSLTISRVEAEDAATYYCQQWTSNPPTFGGGTKLEIK
modifications: N-linked glycan on Asn297: G2 (galactosylated, no core fucose)
Take B1: the figures for the Kd in the experiment with C11, with E4 and in the experiment with E2 were 22.8 µM, 2.48 µM and 4.74 µM, respectively.

The term Kd denotes the equilibrium constant for the complex coming apart. Read a low Kd as higher affinity.
